Measured values as given in US7446182.
Like-named read-outs stand apart in the source and are kept apart here.

Columns and labels:
[1] = molecular target: Bacillus anthracis protective antigen (PA), 83 kDa polypeptide (Bacillus anthracis) (UniProt P13423); assay: SPR, PA immobilized on CM5 chip
[2] = molecular target: Bacillus anthracis protective antigen (PA), 83 kDa polypeptide (Bacillus anthracis) (UniProt P13423); assay: SPR, PA immobilized on CM5 chip; remark: listed apart in the source
[3] = molecular target: Bacillus anthracis protective antigen (PA), 83 kDa polypeptide (Bacillus anthracis) (UniProt P13423); assay: SPR, PA immobilized on CM5 chip at low coupling density
[4] = molecular target: Bacillus anthracis protective antigen (PA), 83 kDa polypeptide (Bacillus anthracis) (UniProt P13423); assay: ELISA on PA; scFv kept 2 h at 4 C before the titration

Chain of Bacillus anthracis protective antigen (PA), 83 kDa polypeptide (Bacillus anthracis) (P13423 30-764 limits assumed): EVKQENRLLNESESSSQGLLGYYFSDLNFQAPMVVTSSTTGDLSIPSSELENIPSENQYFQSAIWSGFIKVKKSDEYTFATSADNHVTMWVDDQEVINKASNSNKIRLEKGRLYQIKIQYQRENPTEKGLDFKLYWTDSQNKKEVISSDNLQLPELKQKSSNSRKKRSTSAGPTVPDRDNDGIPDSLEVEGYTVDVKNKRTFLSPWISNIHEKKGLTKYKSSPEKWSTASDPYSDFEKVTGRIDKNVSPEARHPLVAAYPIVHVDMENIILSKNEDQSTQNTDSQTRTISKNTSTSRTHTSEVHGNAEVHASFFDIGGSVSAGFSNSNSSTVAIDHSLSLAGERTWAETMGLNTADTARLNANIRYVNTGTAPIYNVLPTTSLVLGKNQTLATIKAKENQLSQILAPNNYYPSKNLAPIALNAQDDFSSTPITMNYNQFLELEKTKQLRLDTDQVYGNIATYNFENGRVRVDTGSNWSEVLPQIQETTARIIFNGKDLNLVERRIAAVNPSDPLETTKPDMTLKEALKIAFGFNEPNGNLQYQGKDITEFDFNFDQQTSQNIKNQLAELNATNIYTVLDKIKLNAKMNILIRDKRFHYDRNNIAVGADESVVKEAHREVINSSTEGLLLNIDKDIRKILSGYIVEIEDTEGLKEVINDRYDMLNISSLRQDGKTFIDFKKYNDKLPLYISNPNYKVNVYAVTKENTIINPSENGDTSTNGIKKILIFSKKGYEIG

| Substance | koff [1] | kon [1] | Kd [2] | koff [2] | kon [2] | Kd [3] | EC50 (read off the curve) [4] |
| --- | --- | --- | --- | --- | --- | --- | --- |
| 14B7 Fab (papain digest of the 14B7 mouse IgG1) | 0.0035 s⁻¹ | 310000 M⁻¹ s⁻¹ | 0.012 µM | 0.0033 s⁻¹ | 300000 M⁻¹ s⁻¹ |  |  |
| 14B7 monoclonal antibody (mouse IgG1 from hybridoma 14B7) |  |  |  | 0.00135 s⁻¹ | 500000 M⁻¹ s⁻¹ | 0.0023 µM |  |
| 14B7 wild type scAb (scFv with a C-terminal human constant kappa domain) |  |  |  | 0.003 s⁻¹ | 290000 M⁻¹ s⁻¹ |  |  |
| 14B7 wild type scFv | 0.0035 s⁻¹ |  | 0.012 µM | 0.0032 s⁻¹ | 310000 M⁻¹ s⁻¹ |  | 0.05 µg/mL |
